Measured values from the supplement of paper PMC9112550, “Optimization of the antimicrobial peptide Bac7 by deep mutational scanning” (BMC Biology, 2022).

System: Escherichia coli TOP10
Assay: shrunken log2 fold change of peptide-encoding DNA abundance (4.5 h post-induction vs induction); higher = less antimicrobial activity (less host growth inhibition)
Conditions: time post-induction: 4.5 h; library: site-saturation at positions 5, 18, 19, 20
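Further: peptides expressed intracellularly from a pBAD plasmid library in pooled LB shake-flask culture, induced with 0.3% L-arabinose, DNA abundance read by NGS, three biological replicates, DESeq2 with apeglm shrinkage.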

Q: With RRIRVRPPRLPRPRPRPAHWPRP as the sequence, how does the “shrunken log2 fold change” value read?
A: Its value is 0.313.

Q: RRIRTRPPRLPRPRPRPRGQPRP was tested. Which “shrunken log2 fold change” value did it give?
A: The value was 0.411.

Q: How did the “shrunken log2 fold change” value turn out when RRIRCRPPRLPRPRPRPFHQPRP was run?
A: Its value is -0.429.

Q: How did the “shrunken log2 fold change” value turn out when RRIRGRPPRLPRPRPRPHPVPRP was run?
A: The value was 0.412.

Q: How did the “shrunken log2 fold change” value turn out when RRIRSRPPRLPRPRPRPFRIPRP was run?
A: The value was 0.0361.

Q: With RRIRGRPPRLPRPRPRPVAEPRP as the sequence, how does the “shrunken log2 fold change” value read?
A: Its value is 1.38.

Q: With RRIRRRPPRLPRPRPRPVDVPRP as the sequence, how does the “shrunken log2 fold change” value read?
A: Its value is 1.09.

Q: RRIRWRPPRLPRPRPRPHCRPRP was tested. Which “shrunken log2 fold change” value did it give?
A: The value was 0.0889.

Q: Which “shrunken log2 fold change” value does the source give for RRIRCRPPRLPRPRPRPNTCPRP here?
A: Its value is -0.463.

Q: For RRIRRRPPRLPRPRPRPLGVPRP, which “shrunken log2 fold change” value is on record?
A: Its value is 0.238.

Q: How did the “shrunken log2 fold change” value turn out when RRIRIRPPRLPRPRPRPSGWPRP was run?
A: The value was 0.037.

Q: RRIRCRPPRLPRPRPRPVCCPRP was tested. Which “shrunken log2 fold change” value did it give?
A: The value was 0.0914.

Q: RRIRFRPPRLPRPRPRPQREPRP was tested. Which “shrunken log2 fold change” value did it give?
A: Its value is 0.296.

Q: RRIRHRPPRLPRPRPRPLVEPRP was tested. Which “shrunken log2 fold change” value did it give?
A: Its value is -0.0289.

Q: For RRIRMRPPRLPRPRPRPHMLPRP, which “shrunken log2 fold change” value is on record?
A: Its value is -0.245.

Q: With RRIRRRPPRLPRPRPRPMKVPRP as the sequence, how does the “shrunken log2 fold change” value read?
A: The value was -0.0467.

Q: How did the “shrunken log2 fold change” value turn out when RRIRLRPPRLPRPRPRPDVWPRP was run?
A: Its value is 0.127.

Q: With RRIRYRPPRLPRPRPRPREPPRP as the sequence, how does the “shrunken log2 fold change” value read?
A: Its value is 0.419.

Q: With RRIRERPPRLPRPRPRPVEQPRP as the sequence, how does the “shrunken log2 fold change” value read?
A: The value was -0.209.

Q: Which “shrunken log2 fold change” value does the source give for RRIRTRPPRLPRPRPRPTFVPRP here?
A: Its value is -0.262.

Q: RRIRPRPPRLPRPRPRPEVVPRP was tested. Which “shrunken log2 fold change” value did it give?
A: Its value is 0.0581.

Q: RRIRARPPRLPRPRPRPLIAPRP was tested. Which “shrunken log2 fold change” value did it give?
A: Its value is 0.504.

Q: RRIRLRPPRLPRPRPRPLIQPRP was tested. Which “shrunken log2 fold change” value did it give?
A: Its value is -0.247.

Q: With RRIRFRPPRLPRPRPRPDKWPRP as the sequence, how does the “shrunken log2 fold change” value read?
A: Its value is 0.0538.

Q: RRIRKRPPRLPRPRPRPWWAPRP was tested. Which “shrunken log2 fold change” value did it give?
A: The value was -0.287.

Q: For RRIRKRPPRLPRPRPRPGCFPRP, which “shrunken log2 fold change” value is on record?
A: The value was 0.421.

Q: For RRIRERPPRLPRPRPRPDSWPRP, which “shrunken log2 fold change” value is on record?
A: Its value is -0.563.

Q: How did the “shrunken log2 fold change” value turn out when RRIRTRPPRLPRPRPRPYLLPRP was run?
A: Its value is -0.654.

Q: With RRIRGRPPRLPRPRPRPHIQPRP as the sequence, how does the “shrunken log2 fold change” value read?
A: Its value is 0.192.

Q: With RRIRERPPRLPRPRPRPHSFPRP as the sequence, how does the “shrunken log2 fold change” value read?
A: The value was 0.0142.

Q: Which “shrunken log2 fold change” value does the source give for RRIRKRPPRLPRPRPRPPCVPRP here?
A: Its value is 0.443.

Q: Which “shrunken log2 fold change” value does the source give for RRIRRRPPRLPRPRPRPCKHPRP here?
A: Its value is 0.00883.

Q: How did the “shrunken log2 fold change” value turn out when RRIRERPPRLPRPRPRPWPLPRP was run?
A: Its value is 0.0261.

Q: With RRIRDRPPRLPRPRPRPNPDPRP as the sequence, how does the “shrunken log2 fold change” value read?
A: The value was -0.0924.

Q: How did the “shrunken log2 fold change” value turn out when RRIRDRPPRLPRPRPRPWRNPRP was run?
A: The value was -0.0018.

Q: How did the “shrunken log2 fold change” value turn out when RRIRFRPPRLPRPRPRPRANPRP was run?
A: Its value is 0.509.

Q: How did the “shrunken log2 fold change” value turn out when RRIRNRPPRLPRPRPRPSFLPRP was run?
A: Its value is -0.473.

Q: RRIRRRPPRLPRPRPRPFPEPRP was tested. Which “shrunken log2 fold change” value did it give?
A: Its value is 0.212.

Q: How did the “shrunken log2 fold change” value turn out when RRIRCRPPRLPRPRPRPLARPRP was run?
A: The value was 0.0547.

Q: With RRIRCRPPRLPRPRPRPHANPRP as the sequence, how does the “shrunken log2 fold change” value read?
A: Its value is -0.0108.

Q: For RRIRYRPPRLPRPRPRPLKSPRP, which “shrunken log2 fold change” value is on record?
A: The value was -0.365.

Q: Which “shrunken log2 fold change” value does the source give for RRIRQRPPRLPRPRPRPMCTPRP here?
A: Its value is -0.173.

Q: RRIRLRPPRLPRPRPRPTCYPRP was tested. Which “shrunken log2 fold change” value did it give?
A: The value was -0.371.

Q: RRIRTRPPRLPRPRPRPMRAPRP was tested. Which “shrunken log2 fold change” value did it give?
A: Its value is 1.

Q: Which “shrunken log2 fold change” value does the source give for RRIRRRPPRLPRPRPRPRVKPRP here?
A: The value was 0.699.

Q: Which “shrunken log2 fold change” value does the source give for RRIRFRPPRLPRPRPRPIIIPRP here?
A: The value was -0.579.

Q: Which “shrunken log2 fold change” value does the source give for RRIRPRPPRLPRPRPRPHMVPRP here?
A: Its value is -0.0201.

Q: With RRIRHRPPRLPRPRPRPKYWPRP as the sequence, how does the “shrunken log2 fold change” value read?
A: The value was -0.2.

Q: Which “shrunken log2 fold change” value does the source give for RRIRNRPPRLPRPRPRPPGSPRP here?
A: Its value is -0.123.

Q: For RRIRGRPPRLPRPRPRPVGIPRP, which “shrunken log2 fold change” value is on record?
A: The value was 0.414.

Q: With RRIRGRPPRLPRPRPRPPGLPRP as the sequence, how does the “shrunken log2 fold change” value read?
A: Its value is 0.786.

Q: With RRIRERPPRLPRPRPRPVINPRP as the sequence, how does the “shrunken log2 fold change” value read?
A: The value was -0.217.

Q: How did the “shrunken log2 fold change” value turn out when RRIRCRPPRLPRPRPRPLPYPRP was run?
A: Its value is -0.804.

Q: Which “shrunken log2 fold change” value does the source give for RRIRHRPPRLPRPRPRPRMPPRP here?
A: Its value is 0.133.

Q: With RRIRHRPPRLPRPRPRPLMVPRP as the sequence, how does the “shrunken log2 fold change” value read?
A: The value was -0.474.

Q: RRIRIRPPRLPRPRPRPMPKPRP was tested. Which “shrunken log2 fold change” value did it give?
A: The value was -0.0638.

Q: For RRIRKRPPRLPRPRPRPLTFPRP, which “shrunken log2 fold change” value is on record?
A: Its value is 0.299.

Q: With RRIRGRPPRLPRPRPRPMWTPRP as the sequence, how does the “shrunken log2 fold change” value read?
A: Its value is 0.311.

Q: With RRIRMRPPRLPRPRPRPAQQPRP as the sequence, how does the “shrunken log2 fold change” value read?
A: The value was 0.612.

Q: RRIRARPPRLPRPRPRPTINPRP was tested. Which “shrunken log2 fold change” value did it give?
A: The value was -0.00779.

Q: With RRIRMRPPRLPRPRPRPDWYPRP as the sequence, how does the “shrunken log2 fold change” value read?
A: Its value is -0.135.

Q: RRIRGRPPRLPRPRPRPYHGPRP was tested. Which “shrunken log2 fold change” value did it give?
A: The value was -0.459.

Q: RRIRTRPPRLPRPRPRPFPDPRP was tested. Which “shrunken log2 fold change” value did it give?
A: The value was -0.123.

Q: For RRIRKRPPRLPRPRPRPCTGPRP, which “shrunken log2 fold change” value is on record?
A: Its value is 0.0143.

Q: With RRIRFRPPRLPRPRPRPYCLPRP as the sequence, how does the “shrunken log2 fold change” value read?
A: Its value is -0.341.

Q: RRIRIRPPRLPRPRPRPRWSPRP was tested. Which “shrunken log2 fold change” value did it give?
A: Its value is 0.0458.

Q: Which “shrunken log2 fold change” value does the source give for RRIRNRPPRLPRPRPRPFIAPRP here?
A: The value was -0.32.

Q: Which “shrunken log2 fold change” value does the source give for RRIRMRPPRLPRPRPRPDMEPRP here?
A: Its value is 0.00931.

Q: With RRIRYRPPRLPRPRPRPPGMPRP as the sequence, how does the “shrunken log2 fold change” value read?
A: The value was 0.0171.

Q: How did the “shrunken log2 fold change” value turn out when RRIRKRPPRLPRPRPRPPCKPRP was run?
A: The value was -0.242.

Q: With RRIRYRPPRLPRPRPRPPCDPRP as the sequence, how does the “shrunken log2 fold change” value read?
A: The value was -0.196.

Q: How did the “shrunken log2 fold change” value turn out when RRIRYRPPRLPRPRPRPVGPPRP was run?
A: Its value is -0.328.

Q: How did the “shrunken log2 fold change” value turn out when RRIRRRPPRLPRPRPRPHDVPRP was run?
A: Its value is 0.0619.

Q: RRIRARPPRLPRPRPRPSNPPRP was tested. Which “shrunken log2 fold change” value did it give?
A: The value was -0.0677.

Q: With RRIRQRPPRLPRPRPRPSFQPRP as the sequence, how does the “shrunken log2 fold change” value read?
A: The value was -0.467.
